The record followed here is the RNAGym collection of RNA variant scans (doi:10.1093/molbev/msab373).

B1: Azoarcus group I ribozyme (parent)
chain: GUGCCUUGCGCCGGGAAACCACGCAAGGGAUGGUGUCAAAUUCGGCGAAACCUAAGCGCCCGCCCGGGCGUAUGGCAACGCCGAGCCAAGCUUCGGCGCCUGCGCCGAUGAAGGUGUAGAGACUAGACGGCACCCACCUAAGGCAAACGCUAUGGUGAAGGCAUAGUCCAGGGAGUGGCGAAAGUCACACAAACCGG

The data set covers variants of B1. Briefly: reverse-splicing fitness (ratio to wild type); higher = more active; in vitro selection; Mg2+ level not given. The essentials:
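An in vitro group I ribozyme library with randomized positions was T7-transcribed and gel-purified. In triplicate, 10 pmol RNA in EPPS pH 7.5 was reacted with 50 pmoles of a 30-nt RNA substrate for 1 h at 37 °C across several added MgCl2 levels (1–48 mM), then stopped with EDTA. Products were reverse transcribed from a substrate-complementary primer, PCR-amplified and sequenced (HiSeq 4000). Fitness is a variant's read proportion after selection over that before, normalised to wild type.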
With GUGCCUUGCGCCGGGAAACCACGCAAGGGAUGGUGUCAAAUUCGGCGAAACCUAAGCGCCCGCCCGGGCGUAUGGCAACGCAGAGCCAAGCUUCGGCGCCUGCGCCGAUGAAGGUGUAGUGACUAGACGGCACCCACCUAAGGCAAACGGUAUGGUGAAGGCAUAGUCUAGGGAGUGGCGAAAGUCACACAAACCGG, the reverse-splicing fitness is 0.00543. With GUGCCUUGCGCCGGGAAACCACGCAAGGGAUGGUGUCAAAUUCGGCGAAACCUAAGCGCCCGCCCGGGCGUAUGGCAACGCAGAGCCAAGCUUCGGCGCCUGCGCCGAUGGAGGUGUAGUGACUAGACGGCACCCACCUAAGGCGAACGCUAUGGUGAAGGCAUAGUCCAGGGAGUGGCGAAAGUCACACAAACCGG the figure was 0.0318; with GUGCCUUGCGCCGGGAAACCACGCAAGGGAUGGUGUCAAAUUCGGCGAAACCUAAGCGCCCGCCCGGGCGUAUGGCAACGCGGAGCCAAGCUUCGGCGCCUGCGCCGAUGUAGGUGUAGUGACUAGACGGCACCCACCUAAGGCGAACGCUAUGGUGAAGGCAUAGUCGAGGGAGCGGCGAAAGUCACACAAACCGG, 0.00515. On to GUGCCUUGCGCCGGGAAACCACGCAAGGGAUGGUGUCAAAUUCGGCGAAACCUAAGCGCCCGCCCGGGCGUAUGGCAACGCAGAGCCAAGCUUCGGCGCCUGCGCCGAUGAAGGUGUAGAGACUAGACGGCACCCACCUAAGGCGAACGAUAUGGUGAAGGCAUAGUCGAGGGAGGGGCGAAAGUCACACAAACCGG, for which the reverse-splicing fitness came out at 0.0061.

Consider GUGCCUUGCGCCGGGAAACCACGCAAGGGAUGGUGUCAAAUUCGGCGAAACCUAAGCGCCCGCCCGGGCGUAUGGCAACGCCGAGCCAAGCUUCGGCGCCUGCGCCGAUGGAGGUGUAGCGACUAGACGGCACCCACCUAAGGCAAACGAUAUGGUGAAGGCAUAGUCAAGGGAGAGGCGAAAGUCACACAAACCGG, for which the reverse-splicing fitness is 0.0158. With GUGCCUUGCGCCGGGAAACCACGCAAGGGAUGGUGUCAAAUUCGGCGAAACCUAAGCGCCCGCCCGGGCGUAUGGCAACGCUGAGCCAAGCUUCGGCGCCUGCGCCGAUGAAGGUGUAGAGACUAGACGGCACCCACCUAAGGCGAACGUUAUGGUGAAGGCAUAGUCAAGGGAGUGGCGAAAGUCACACAAACCGG the figure was 0.0113.

As for GUGCCUUGCGCCGGGAAACCACGCAAGGGAUGGUGUCAAAUUCGGCGAAACCUAAGCGCCCGCCCGGGCGUAUGGCAACGCUGAGCCAAGCUUCGGCGCCUGCGCCGAUGGAGGUGUAGCGACUAGACGGCACCCACCUAAGGCGAACGCUAUGGUGAAGGCAUAGUCAAGGGAGCGGCGAAAGUCACACAAACCGG, the reverse-splicing fitness came to 0.0205. With GUGCCUUGCGCCGGGAAACCACGCAAGGGAUGGUGUCAAAUUCGGCGAAACCUAAGCGCCCGCCCGGGCGUAUGGCAACGCCGAGCCAAGCUUCGGCGCCUGCGCCGAUGCAGGUGUAGUGACUAGACGGCACCCACCUAAGGCGAACGAUAUGGUGAAGGCAUAGUCUAGGGAGUGGCGAAAGUCACACAAACCGG the figure was 0.0133. As to GUGCCUUGCGCCGGGAAACCACGCAAGGGAUGGUGUCAAAUUCGGCGAAACCUAAGCGCCCGCCCGGGCGUAUGGCAACGCGGAGCCAAGCUUCGGCGCCUGCGCCGAUGGAGGUGUAGAGACUAGACGGCACCCACCUAAGGCCAACGAUAUGGUGAAGGCAUAGUCAAGGGAGUGGCGAAAGUCACACAAACCGG, the reverse-splicing fitness is 0.00763. With GUGCCUUGCGCCGGGAAACCACGCAAGGGAUGGUGUCAAAUUCGGCGAAACCUAAGCGCCCGCCCGGGCGUAUGGCAACGCUGAGCCAAGCUUCGGCGCCUGCGCCGAUGAAGGUGUAGUGACUAGACGGCACCCACCUAAGGCCAACGGUAUGGUGAAGGCAUAGUCUAGGGAGUGGCGAAAGUCACACAAACCGG the figure was 0.00275; with GUGCCUUGCGCCGGGAAACCACGCAAGGGAUGGUGUCAAAUUCGGCGAAACCUAAGCGCCCGCCCGGGCGUAUGGCAACGCCGAGCCAAGCUUCGGCGCCUGCGCCGAUGCAGGUGUAGUGACUAGACGGCACCCACCUAAGGCCAACGGUAUGGUGAAGGCAUAGUCUAGGGAGCGGCGAAAGUCACACAAACCGG, 0.00313; with GUGCCUUGCGCCGGGAAACCACGCAAGGGAUGGUGUCAAAUUCGGCGAAACCUAAGCGCCCGCCCGGGCGUAUGGCAACGCUGAGCCAAGCUUCGGCGCCUGCGCCGAUGAAGGUGUAGUGACUAGACGGCACCCACCUAAGGCAAACGCUAUGGUGAAGGCAUAGUCAAGGGAGGGGCGAAAGUCACACAAACCGG, 0.00126. With GUGCCUUGCGCCGGGAAACCACGCAAGGGAUGGUGUCAAAUUCGGCGAAACCUAAGCGCCCGCCCGGGCGUAUGGCAACGCCGAGCCAAGCUUCGGCGCCUGCGCCGAUGCAGGUGUAGAGACUAGACGGCACCCACCUAAGGCCAACGAUAUGGUGAAGGCAUAGUCUAGGGAGCGGCGAAAGUCACACAAACCGG the figure was 0.0102; with GUGCCUUGCGCCGGGAAACCACGCAAGGGAUGGUGUCAAAUUCGGCGAAACCUAAGCGCCCGCCCGGGCGUAUGGCAACGCUGAGCCAAGCUUCGGCGCCUGCGCCGAUGCAGGUGUAGGGACUAGACGGCACCCACCUAAGGCGAACGGUAUGGUGAAGGCAUAGUCAAGGGAGAGGCGAAAGUCACACAAACCGG, 0.0117; with GUGCCUUGCGCCGGGAAACCACGCAAGGGAUGGUGUCAAAUUCGGCGAAACCUAAGCGCCCGCCCGGGCGUAUGGCAACGCAGAGCCAAGCUUCGGCGCCUGCGCCGAUGAAGGUGUAGUGACUAGACGGCACCCACCUAAGGCUAACGUUAUGGUGAAGGCAUAGUCCAGGGAGGGGCGAAAGUCACACAAACCGG, 0.0066. With GUGCCUUGCGCCGGGAAACCACGCAAGGGAUGGUGUCAAAUUCGGCGAAACCUAAGCGCCCGCCCGGGCGUAUGGCAACGCUGAGCCAAGCUUCGGCGCCUGCGCCGAUGCAGGUGUAGCGACUAGACGGCACCCACCUAAGGCGAACGAUAUGGUGAAGGCAUAGUCAAGGGAGAGGCGAAAGUCACACAAACCGG the figure was 0.0163; with GUGCCUUGCGCCGGGAAACCACGCAAGGGAUGGUGUCAAAUUCGGCGAAACCUAAGCGCCCGCCCGGGCGUAUGGCAACGCGGAGCCAAGCUUCGGCGCCUGCGCCGAUGUAGGUGUAGAGACUAGACGGCACCCACCUAAGGCGAACGGUAUGGUGAAGGCAUAGUCAAGGGAGCGGCGAAAGUCACACAAACCGG, 0.0129; with GUGCCUUGCGCCGGGAAACCACGCAAGGGAUGGUGUCAAAUUCGGCGAAACCUAAGCGCCCGCCCGGGCGUAUGGCAACGCCGAGCCAAGCUUCGGCGCCUGCGCCGAUGUAGGUGUAGCGACUAGACGGCACCCACCUAAGGCAAACGGUAUGGUGAAGGCAUAGUCCAGGGAGAGGCGAAAGUCACACAAACCGG, 0.0104. On to GUGCCUUGCGCCGGGAAACCACGCAAGGGAUGGUGUCAAAUUCGGCGAAACCUAAGCGCCCGCCCGGGCGUAUGGCAACGCAGAGCCAAGCUUCGGCGCCUGCGCCGAUGCAGGUGUAGGGACUAGACGGCACCCACCUAAGGCUAACGUUAUGGUGAAGGCAUAGUCCAGGGAGUGGCGAAAGUCACACAAACCGG, for which the reverse-splicing fitness came to 0.0124. Consider GUGCCUUGCGCCGGGAAACCACGCAAGGGAUGGUGUCAAAUUCGGCGAAACCUAAGCGCCCGCCCGGGCGUAUGGCAACGCUGAGCCAAGCUUCGGCGCCUGCGCCGAUGUAGGUGUAGCGACUAGACGGCACCCACCUAAGGCUAACGCUAUGGUGAAGGCAUAGUCAAGGGAGCGGCGAAAGUCACACAAACCGG, for which the reverse-splicing fitness was found to be 0.00749. Take GUGCCUUGCGCCGGGAAACCACGCAAGGGAUGGUGUCAAAUUCGGCGAAACCUAAGCGCCCGCCCGGGCGUAUGGCAACGCUGAGCCAAGCUUCGGCGCCUGCGCCGAUGUAGGUGUAGAGACUAGACGGCACCCACCUAAGGCCAACGCUAUGGUGAAGGCAUAGUCGAGGGAGAGGCGAAAGUCACACAAACCGG: the reverse-splicing fitness stood at 0.0234. With GUGCCUUGCGCCGGGAAACCACGCAAGGGAUGGUGUCAAAUUCGGCGAAACCUAAGCGCCCGCCCGGGCGUAUGGCAACGCCGAGCCAAGCUUCGGCGCCUGCGCCGAUGGAGGUGUAGCGACUAGACGGCACCCACCUAAGGCAAACGUUAUGGUGAAGGCAUAGUCGAGGGAGUGGCGAAAGUCACACAAACCGG the figure was 0.0131; with GUGCCUUGCGCCGGGAAACCACGCAAGGGAUGGUGUCAAAUUCGGCGAAACCUAAGCGCCCGCCCGGGCGUAUGGCAACGCCGAGCCAAGCUUCGGCGCCUGCGCCGAUGUAGGUGUAGCGACUAGACGGCACCCACCUAAGGCCAACGAUAUGGUGAAGGCAUAGUCUAGGGAGCGGCGAAAGUCACACAAACCGG, 0.0123. With GUGCCUUGCGCCGGGAAACCACGCAAGGGAUGGUGUCAAAUUCGGCGAAACCUAAGCGCCCGCCCGGGCGUAUGGCAACGCUGAGCCAAGCUUCGGCGCCUGCGCCGAUGGAGGUGUAGCGACUAGACGGCACCCACCUAAGGCGAACGAUAUGGUGAAGGCAUAGUCCAGGGAGCGGCGAAAGUCACACAAACCGG the figure was 0.0246; with GUGCCUUGCGCCGGGAAACCACGCAAGGGAUGGUGUCAAAUUCGGCGAAACCUAAGCGCCCGCCCGGGCGUAUGGCAACGCGGAGCCAAGCUUCGGCGCCUGCGCCGAUGUAGGUGUAGAGACUAGACGGCACCCACCUAAGGCAAACGAUAUGGUGAAGGCAUAGUCUAGGGAGCGGCGAAAGUCACACAAACCGG, 0.0161; with GUGCCUUGCGCCGGGAAACCACGCAAGGGAUGGUGUCAAAUUCGGCGAAACCUAAGCGCCCGCCCGGGCGUAUGGCAACGCGGAGCCAAGCUUCGGCGCCUGCGCCGAUGUAGGUGUAGAGACUAGACGGCACCCACCUAAGGCCAACGCUAUGGUGAAGGCAUAGUCCAGGGAGGGGCGAAAGUCACACAAACCGG, 0.0756. With GUGCCUUGCGCCGGGAAACCACGCAAGGGAUGGUGUCAAAUUCGGCGAAACCUAAGCGCCCGCCCGGGCGUAUGGCAACGCAGAGCCAAGCUUCGGCGCCUGCGCCGAUGUAGGUGUAGCGACUAGACGGCACCCACCUAAGGCUAACGGUAUGGUGAAGGCAUAGUCCAGGGAGGGGCGAAAGUCACACAAACCGG the figure was 0.00439; with GUGCCUUGCGCCGGGAAACCACGCAAGGGAUGGUGUCAAAUUCGGCGAAACCUAAGCGCCCGCCCGGGCGUAUGGCAACGCGGAGCCAAGCUUCGGCGCCUGCGCCGAUGGAGGUGUAGGGACUAGACGGCACCCACCUAAGGCAAACGGUAUGGUGAAGGCAUAGUCCAGGGAGGGGCGAAAGUCACACAAACCGG, 0.00387.

Regarding GUGCCUUGCGCCGGGAAACCACGCAAGGGAUGGUGUCAAAUUCGGCGAAACCUAAGCGCCCGCCCGGGCGUAUGGCAACGCCGAGCCAAGCUUCGGCGCCUGCGCCGAUGAAGGUGUAGCGACUAGACGGCACCCACCUAAGGCUAACGGUAUGGUGAAGGCAUAGUCGAGGGAGCGGCGAAAGUCACACAAACCGG, the reverse-splicing fitness is 0.00537.

GUGCCUUGCGCCGGGAAACCACGCAAGGGAUGGUGUCAAAUUCGGCGAAACCUAAGCGCCCGCCCGGGCGUAUGGCAACGCAGAGCCAAGCUUCGGCGCCUGCGCCGAUGGAGGUGUAGGGACUAGACGGCACCCACCUAAGGCAAACGAUAUGGUGAAGGCAUAGUCCAGGGAGCGGCGAAAGUCACACAAACCGG: the reverse-splicing fitness was found to be 0.0186.
